Laboratory results: publication PMC3460896, “A Common Origin for the Bacterial Toxin-Antitoxin Systems parD and ccd, Suggested by Analyses of Toxin/Target and Toxin/Antitoxin Interactions” (PLoS ONE, 2012)
Where “and” joins values, the source holds several entries; their conditions need not be identical. Identical values can stand only once.

B1: CcdA antitoxin (natural protein, plasmid F, UniProt P62552 1-72, looked up)
chain: MKQRITVTVDSDSYQLLKAYDVNISGLVSTTMQNEARRLRAERWKAENQEGMAEVARFIEMNGSFADENRDW
notes: source: E. coli strain SG22623 carrying plasmid pKK223CcdA, purified as described previously [35]
B2: His6-Kis antitoxin (natural protein, plasmid R1, UniProt P13975 1-85, looked up)
chain: MHTTRLKRVGGSVMLTVPPALLNALSLGTDNEVGMVIDNGRLIVEPYRRPQYSLAELLAQCDPNAEISAEEREWLDAPATGQEEI
notes: also called HisKis; source: purified as described [12]

Experiments:
Kid toxin (plasmid R1) = Kid toxin (plasmid R1) (UniProt P13976); assay: native MS; Kid:CcdA ratios 2:1, 1:1 and 1:2; 100 mM ammonium acetate pH 6.7; lowest protein concentration 10 µM
Chain of Kid toxin (plasmid R1) (P13976 24-133): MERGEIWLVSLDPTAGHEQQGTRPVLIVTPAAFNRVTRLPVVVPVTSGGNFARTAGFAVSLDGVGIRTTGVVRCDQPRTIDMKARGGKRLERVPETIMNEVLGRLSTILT

CcdB toxin [1] = molecular target: T1, CcdB toxin (plasmid F, UniProt P62554 1-101); assay: native MS; CcdB:CcdA molar ratios 2:1 and 1:1 (CcdB equal to or in excess of CcdA); 100 mM ammonium acetate pH 6.7; lowest protein concentration 10 µM; conditions: both partners purified
T1 construct: source: E. coli strain B462 carrying plasmid pULB2250, purified (Sephacryl S-200, MonoQ, CM-Sepharose)
T1 sequence (P62554 whole entry): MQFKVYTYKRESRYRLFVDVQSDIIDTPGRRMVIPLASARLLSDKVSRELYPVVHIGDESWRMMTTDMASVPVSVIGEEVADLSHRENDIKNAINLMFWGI

CcdB toxin [2] = molecular target: T1, CcdB toxin; assay: native MS; CcdB:CcdA molar ratios 1:2 and 1:4 (CcdA in excess); 100 mM ammonium acetate pH 6.7; lowest protein concentration 10 µM; conditions: both partners purified
[3] = molecular target: the molecule itself; assay: native MS; CcdB:His6Kis molar ratios 2:1, 1:1 and 1:2 (Fig. 6A-C); 100 mM ammonium acetate pH 6.7; lowest protein concentration 10 µM
CcdB toxin [4] = molecular target: T1, CcdB toxin; assay: as above; conditions: both partners purified
CcdB toxin [5] = molecular target: T1, CcdB toxin; assay: native MS; CcdB:His6Kis molar ratio 1:4 (Fig. 6D); 100 mM ammonium acetate pH 6.7; lowest protein concentration 5 µM; conditions: both partners purified

Binder | stoichiometry N (CcdA per Kid (1:2)) (Kid toxin (plasmid R1)) | stoichiometry N (CcdA per Kid (2:2)) (Kid toxin (plasmid R1)) | stoichiometry N (CcdB toxin [1]) | stoichiometry N (CcdB toxin [2]) | stoichiometry N [3] | stoichiometry N (CcdB toxin [4]) | stoichiometry N (CcdB toxin [5])
B1 | 0.5 | 1 | 0.5 CcdA per CcdB (1:2) and 0.5 CcdA per CcdB (2:4) | 1 CcdA per CcdB (2:2) | – | – | –
B2 | – | – | – | – | 2 | 1 His6Kis per CcdB (2:2) | 0.5 His6Kis per CcdB (1:2)
